Laboratory results from the RNAGym collection of RNA variant scans (doi:10.1073/pnas.2313332121).
Variants at the floor of the assay were thinned out.

B1: TPR 5TU (parent)
chain: GGAUCUUCUCGAUCUAACAAAAAAGACAAAUCUGCCACAAAGCUUGAGAGCAUCUUCGGAUGCAGAGGCGGCAGCCUUCGGUGGCGCGAUAGCGCCAACGUUCUCAACUAUGACACGCAAAACGCGUGCUCCGUUGAAUGGAGUUUAUCAUG

Variants of: B1
Assay: polymerase ribozyme fitness, log enrichment relative to wild type (log ratio); higher = more active; in vitro selection for triplet polymerase activity
Summary of the method: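 Input and output libraries were sequenced on Illumina after a single in vitro selection round, run in triplicate on PCR-built, transcribed mutant libraries of each subunit of a heterodimeric triplet polymerase ribozyme. Selection annealed libraries to a biotinylated primer, the partner subunit and triplets, incubated them frozen at −7 °C, then gel-excised extended constructs for streptavidin-bead capture and RT-PCR. Genotypes with ≥10 input reads and ≥1 read per output were kept. Fitness is the logarithm, taken in base 2, of genotype enrichment divided by wild-type enrichment, using inverse-variance-weighted replicate averages.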

Question: With C54U C87G C93U C125A G133A A142C as the variant, how does the “polymerase ribozyme fitness (log ratio)” value read?
Answer: ≤ -4.2

Question: With A16U U31A A64U C85U A91G C131A as the variant, how does the “polymerase ribozyme fitness (log ratio)” value read?
Answer: ≤ -4.2

Question: For U45G C87U U139A, which “polymerase ribozyme fitness (log ratio)” value is on record?
Answer: ≤ -4.2

Question: Which “polymerase ribozyme fitness (log ratio)” value does the source give for A17G C57A A91G C95G A122U here?
Answer: -4.04

Question: Which “polymerase ribozyme fitness (log ratio)” value does the source give for C87U U90C C99G here?
Answer: -3.53

Question: With C57A G88U A120C G124A C149A as the variant, how does the “polymerase ribozyme fitness (log ratio)” value read?
Answer: ≤ -4.2

Question: Which “polymerase ribozyme fitness (log ratio)” value does the source give for G59A A89U here?
Answer: -0.162

Question: With C10A U33A U78G U90A G140A as the variant, how does the “polymerase ribozyme fitness (log ratio)” value read?
Answer: ≤ -4.2

Question: Which “polymerase ribozyme fitness (log ratio)” value does the source give for A28C A64U G84A C85G here?
Answer: ≤ -4.2

Question: Which “polymerase ribozyme fitness (log ratio)” value does the source give for U61G G83U G86A C149U here?
Answer: ≤ -4.2

Question: With U55A C85A G133C as the variant, how does the “polymerase ribozyme fitness (log ratio)” value read?
Answer: -3.05

Question: For C8U C38U G48A A60C C72G C96A C99U C114G U139G U148G, which “polymerase ribozyme fitness (log ratio)” value is on record?
Answer: ≤ -4.2

Question: For A16U U44G G48A C87U U102G C131U C132G, which “polymerase ribozyme fitness (log ratio)” value is on record?
Answer: ≤ -4.2

Question: With U4C U53A G92C C114A A120G as the variant, how does the “polymerase ribozyme fitness (log ratio)” value read?
Answer: ≤ -4.2

Question: With C57U C85A G100U A115G U135A G141C as the variant, how does the “polymerase ribozyme fitness (log ratio)” value read?
Answer: ≤ -4.2

Question: With U15A as the variant, how does the “polymerase ribozyme fitness (log ratio)” value read?
Answer: -0.182

Question: Which “polymerase ribozyme fitness (log ratio)” value does the source give for A23G C114U here?
Answer: -3.53

Question: For U31A A40U C85G A106G G140A C149A, which “polymerase ribozyme fitness (log ratio)” value is on record?
Answer: ≤ -4.2

Question: Which “polymerase ribozyme fitness (log ratio)” value does the source give for A98G A120G here?
Answer: -0.401

Question: For A23C U33A A41G U45A C87G C103G, which “polymerase ribozyme fitness (log ratio)” value is on record?
Answer: ≤ -4.2

Question: Which “polymerase ribozyme fitness (log ratio)” value does the source give for U6C A17U U33C C51G C57G G83U C95G A98G U127G here?
Answer: ≤ -4.2

Question: For G42C G84U A138G U146G, which “polymerase ribozyme fitness (log ratio)” value is on record?
Answer: ≤ -4.2

Question: Which “polymerase ribozyme fitness (log ratio)” value does the source give for A73G C93A A110C U139A here?
Answer: ≤ -4.2

Question: For G59C A60C U77A C85A G140A U144C, which “polymerase ribozyme fitness (log ratio)” value is on record?
Answer: ≤ -4.2

Question: With C105G C118A as the variant, how does the “polymerase ribozyme fitness (log ratio)” value read?
Answer: -3.26

Question: For U31C A37C A106U A107C, which “polymerase ribozyme fitness (log ratio)” value is on record?
Answer: ≤ -4.2

Question: With U4C A22C G48U C93G A122C as the variant, how does the “polymerase ribozyme fitness (log ratio)” value read?
Answer: -3.98

Question: For A26G U33C C85U, which “polymerase ribozyme fitness (log ratio)” value is on record?
Answer: ≤ -4.2

Question: Which “polymerase ribozyme fitness (log ratio)” value does the source give for G46A G84A A119C G136A A150G here?
Answer: -3.68

Question: With A26G U78C as the variant, how does the “polymerase ribozyme fitness (log ratio)” value read?
Answer: -3.95

Question: Which “polymerase ribozyme fitness (log ratio)” value does the source give for G84U C116U G143C here?
Answer: -3.37

Question: Which “polymerase ribozyme fitness (log ratio)” value does the source give for G71U G84A here?
Answer: -2.59

Question: With C5A A26G A115G as the variant, how does the “polymerase ribozyme fitness (log ratio)” value read?
Answer: ≤ -4.2

Question: With A52U A73G U102C as the variant, how does the “polymerase ribozyme fitness (log ratio)” value read?
Answer: ≤ -4.2

Question: Which “polymerase ribozyme fitness (log ratio)” value does the source give for G48A C57A U144G here?
Answer: 0.472

Question: For A12U A41U G65C G70C C79U, which “polymerase ribozyme fitness (log ratio)” value is on record?
Answer: ≤ -4.2

Question: With C35G A60C as the variant, how does the “polymerase ribozyme fitness (log ratio)” value read?
Answer: -3.99

Question: For A37U C51U G92U, which “polymerase ribozyme fitness (log ratio)” value is on record?
Answer: -2.25

Question: For U90A C125G A147C U148C, which “polymerase ribozyme fitness (log ratio)” value is on record?
Answer: -3.99

Question: Which “polymerase ribozyme fitness (log ratio)” value does the source give for C96A G124A here?
Answer: -0.328

Question: With G50A G70A as the variant, how does the “polymerase ribozyme fitness (log ratio)” value read?
Answer: -3.76

Question: For A12G C14G A22C A37C G88C G143C, which “polymerase ribozyme fitness (log ratio)” value is on record?
Answer: ≤ -4.2

Question: With C5A A28G C35G A37U C85G C96G C103G U151A as the variant, how does the “polymerase ribozyme fitness (log ratio)” value read?
Answer: -3.65

Question: Which “polymerase ribozyme fitness (log ratio)” value does the source give for C5G U56A G84U U144A here?
Answer: -3.4

Question: For G58U C63G A142C, which “polymerase ribozyme fitness (log ratio)” value is on record?
Answer: -1.41

Question: Which “polymerase ribozyme fitness (log ratio)” value does the source give for U9G G48C G62A U82A G84U here?
Answer: ≤ -4.2

Question: With G62A G117A U134C A150G as the variant, how does the “polymerase ribozyme fitness (log ratio)” value read?
Answer: ≤ -4.2

Question: With G11U C38A G83U U135C C149G as the variant, how does the “polymerase ribozyme fitness (log ratio)” value read?
Answer: ≤ -4.2

Question: With U101A G143C as the variant, how does the “polymerase ribozyme fitness (log ratio)” value read?
Answer: -2.08

Question: For U55G G80A, which “polymerase ribozyme fitness (log ratio)” value is on record?
Answer: -2.09

Question: With A28G C54U C93A U127A as the variant, how does the “polymerase ribozyme fitness (log ratio)” value read?
Answer: ≤ -4.2

Question: With G50U G80A G92A A115U as the variant, how does the “polymerase ribozyme fitness (log ratio)” value read?
Answer: ≤ -4.2

Question: For G48A C149U, which “polymerase ribozyme fitness (log ratio)” value is on record?
Answer: -1.46

Question: Which “polymerase ribozyme fitness (log ratio)” value does the source give for A20U U56G G65A C76U C85A G141C U148C here?
Answer: ≤ -4.2

Question: With A16C U61A A89G C118A C149G as the variant, how does the “polymerase ribozyme fitness (log ratio)” value read?
Answer: ≤ -4.2

Question: For G58A C87A A98G A121C, which “polymerase ribozyme fitness (log ratio)” value is on record?
Answer: ≤ -4.2

Question: For C10U A29U G92A C99A U145C, which “polymerase ribozyme fitness (log ratio)” value is on record?
Answer: ≤ -4.2

Question: With A19C C57A C131A as the variant, how does the “polymerase ribozyme fitness (log ratio)” value read?
Answer: -2.25

Question: Which “polymerase ribozyme fitness (log ratio)” value does the source give for C118A A119U here?
Answer: -0.617

Question: With A47U U55A G141U as the variant, how does the “polymerase ribozyme fitness (log ratio)” value read?
Answer: -1.14

Question: For G46U C99A, which “polymerase ribozyme fitness (log ratio)” value is on record?
Answer: -3.99

Question: For G42A A49C C54U C95U C118U, which “polymerase ribozyme fitness (log ratio)” value is on record?
Answer: ≤ -4.2

Question: Which “polymerase ribozyme fitness (log ratio)” value does the source give for A29C G58A C87G C93G G133A U145C here?
Answer: ≤ -4.2

Question: With U9G C87G C93U C125A as the variant, how does the “polymerase ribozyme fitness (log ratio)” value read?
Answer: ≤ -4.2

Question: With C38U U56A A60U C95A as the variant, how does the “polymerase ribozyme fitness (log ratio)” value read?
Answer: -1.13

Question: Which “polymerase ribozyme fitness (log ratio)” value does the source give for A49U G86A C87G A106C G136U A150C here?
Answer: ≤ -4.2

Question: Which “polymerase ribozyme fitness (log ratio)” value does the source give for G84U C95U here?
Answer: -1.23

Question: With A26C A52U A89C as the variant, how does the “polymerase ribozyme fitness (log ratio)” value read?
Answer: -3.85

Question: With A41C G136A as the variant, how does the “polymerase ribozyme fitness (log ratio)” value read?
Answer: 0.215

Question: For A49G G83A U144G A147U, which “polymerase ribozyme fitness (log ratio)” value is on record?
Answer: -1.87

Question: Which “polymerase ribozyme fitness (log ratio)” value does the source give for A29G A60G G92C C116G A121G here?
Answer: ≤ -4.2

Question: Which “polymerase ribozyme fitness (log ratio)” value does the source give for A19U C96G C114U here?
Answer: -2.99

Question: With A41C C95U A119G as the variant, how does the “polymerase ribozyme fitness (log ratio)” value read?
Answer: -0.978

Question: For U56C G62U C87U, which “polymerase ribozyme fitness (log ratio)” value is on record?
Answer: -0.567

Question: For C8A G48A G92C, which “polymerase ribozyme fitness (log ratio)” value is on record?
Answer: ≤ -4.2

Question: With C85A G112U as the variant, how does the “polymerase ribozyme fitness (log ratio)” value read?
Answer: ≤ -4.2

Question: For A29U A30C A49G C57U C87A G100A G141A, which “polymerase ribozyme fitness (log ratio)” value is on record?
Answer: ≤ -4.2

Question: Which “polymerase ribozyme fitness (log ratio)” value does the source give for A26C G65A C79A A89U A97C G117A here?
Answer: ≤ -4.2

Question: For A3C C85U G141C, which “polymerase ribozyme fitness (log ratio)” value is on record?
Answer: -2.07

Question: With U61A G88U as the variant, how does the “polymerase ribozyme fitness (log ratio)” value read?
Answer: ≤ -4.2

Question: Which “polymerase ribozyme fitness (log ratio)” value does the source give for C57U U61A A89U A106G A122G A150G here?
Answer: -3.73

Question: With U9C A16U A21G G70C G92U G143U U145G as the variant, how does the “polymerase ribozyme fitness (log ratio)” value read?
Answer: ≤ -4.2

Question: Which “polymerase ribozyme fitness (log ratio)” value does the source give for G84U U90A C108A here?
Answer: ≤ -4.2

Question: For A26U G86A, which “polymerase ribozyme fitness (log ratio)” value is on record?
Answer: -2.74
